# [ ]: non-standard residue; d: D form. Phe(3-Me) = Cc1cccc(C[C@H](N)C(=O)O)c1; Phe(4-Me) = Cc1ccc(C[C@H](N)C(=O)O)cc1; Phe(2-Me) = Cc1ccccc1C[C@H](N)C(=O)O; Arg(Me) = CNC(=N)NCCC[C@H](N)C(=O)O; Dap(CONH2) = NC(=O)NC[C@H](N)C(=O)O; Ala(cPr) = N[C@@H](CC1CC1)C(=O)O; Hyp = O=C(O)[C@@H]1C[C@@H](O)CN1; αMeF = C[C@](N)(Cc1ccccc1)C(=O)O; 2Pal = N[C@@H](Cc1ccccn1)C(=O)O; 3Pal = N[C@@H](Cc1cccnc1)C(=O)O; 4Pal = N[C@@H](Cc1ccncc1)C(=O)O; Cha = N[C@@H](CC1CCCCC1)C(=O)O
# B1: des(1)-Ac-[D-Tyr2,Hyp3,Thr5,Phe6Ψ((R)CHOH-(E)CH═)Gly7,Arg(Me)9,Trp10]MS10 (peptide)
# peptide: Ac-[dY][Hyp]NTFGL[Arg(Me)]W-NH2
# modifications: also: Phe5-Gly6 -CONH- replaced by (R)-CH(OH)-(E)CH= to Gly α carbon
# B2: des(1)-Ac-[D-Tyr2,Hyp3,Thr5,Pya(3)6,Arg(Me)9,Trp10]MS10 (peptide)
# peptide: Ac-[dY][Hyp]NT[3Pal]GL[Arg(Me)]W-NH2
# B3: des(1)-Ac-[D-Tyr2,Hyp3,Thr5,Pya(4)6,Arg(Me)9,Trp10]MS10 (peptide)
# peptide: Ac-[dY][Hyp]NT[4Pal]GL[Arg(Me)]W-NH2
# B4: des(1)-Ac-[D-Tyr2,Hyp3,Thr5,Phe6Ψ(CH2O)Gly7,Arg(Me)9,Trp10]MS10 (peptide)
# peptide: Ac-[dY][Hyp]NTFGL[Arg(Me)]W-NH2
# modifications: also: Phe5-Gly6 amide bond replaced by -CH2O-
# B5: des(1)-Ac-[D-Tyr2,Hyp3,Thr5,Pya(2)6,Arg(Me)9,Trp10]MS10 (peptide)
# peptide: Ac-[dY][Hyp]NT[2Pal]GL[Arg(Me)]W-NH2
# B6: des(1)-Ac-[D-Tyr2,Hyp3,Thr5,αMePhe6,Arg(Me)9,Trp10]MS10 (peptide)
# peptide: Ac-[dY][Hyp]NT[αMeF]GL[Arg(Me)]W-NH2
# SMILES: CNC(=N)NCCC[C@H](NC(=O)[C@H](CC(C)C)NC(=O)CNC(=O)[C@](C)(Cc1ccccc1)NC(=O)[C@@H](NC(=O)[C@H](CC(N)=O)NC(=O)[C@@H]1C[C@@H](O)CN1C(=O)[C@@H](Cc1ccc(O)cc1)NC(C)=O)[C@@H](C)O)C(=O)N[C@@H](Cc1c[nH]c2ccccc12)C(N)=O
# B7: des(1)-Ac-[D-Tyr2,Hyp3,Thr5,Phe6Ψ((S)CHOH-CH2)Gly7,Arg(Me)9,Trp10]MS10 (peptide)
# peptide: Ac-[dY][Hyp]NTFGL[Arg(Me)]W-NH2
# modifications: also: Phe5-Gly6 amide bond replaced by -CH(OH)-CH2- ((S)-CHOH)
# B8: des(1)-Ac-[D-Tyr2,Hyp3,Thr5,Gly7Ψ((E)CH═CH)Leu8,Arg(Me)9,Trp10]MS10 (peptide)
# peptide: Ac-[dY][Hyp]NTFGL[Arg(Me)]W-NH2
# modifications: also: Gly6-Leu7 -CONH- replaced by (E) CH=CH
# B9: des(1)-Ac-[D-Tyr2,Hyp3,Thr5,Ala7,Arg(Me)9,Trp10]MS10 (peptide)
# peptide: Ac-[dY][Hyp]NTFAL[Arg(Me)]W-NH2
# B10: des(1)-Ac-[D-Tyr2,Hyp3,Thr5,Cha6,Gly7Ψ((E)CH═CH)Leu8,Arg(Me)9,Trp10]MS10 (peptide)
# peptide: Ac-[dY][Hyp]NT[Cha]GL[Arg(Me)]W-NH2
# modifications: also: Gly6-Leu7 -CONH- replaced by (E)-CH=CH-
# B11: des(1)-Ac-[D-Tyr2,Glu3,Thr5,Arg(Me)9,Trp10]MS10 (peptide)
# peptide: Ac-[dY]ENTFGL[Arg(Me)]W-NH2
# B12: des(1)-Ac-[D-Tyr2,Hyp3,Thr5,Val7,Arg(Me)9,Trp10]MS10 (peptide)
# peptide: Ac-[dY][Hyp]NTFVL[Arg(Me)]W-NH2
# B13: des(1)-Ac-[D-Tyr2,Hyp3,Thr5,Cha6,Ala(cPr)8,Arg(Me)9,Trp10]MS10 (peptide)
# peptide: Ac-[dY][Hyp]NT[Cha]G[Ala(cPr)][Arg(Me)]W-NH2
# SMILES: CNC(=N)NCCC[C@H](NC(=O)[C@H](CC1CC1)NC(=O)CNC(=O)[C@H](CC1CCCCC1)NC(=O)[C@@H](NC(=O)[C@H](CC(N)=O)NC(=O)[C@@H]1C[C@@H](O)CN1C(=O)[C@@H](Cc1ccc(O)cc1)NC(C)=O)[C@@H](C)O)C(=O)N[C@@H](Cc1c[nH]c2ccccc12)C(N)=O
# B14: des(1)-Ac-[D-Tyr2,Hyp3,Alb4,Thr5,Arg(Me)9,Trp10]MS10 (peptide)
# peptide: Ac-[dY][Hyp][Dap(CONH2)]TFGL[Arg(Me)]W-NH2
# B15: des(1)-Ac-[D-Tyr2,Hyp3,Thr5,Phe(3Me)6,Arg(Me)9,Trp10]MS10 (peptide)
# peptide: Ac-[dY][Hyp]NT[Phe(3-Me)]GL[Arg(Me)]W-NH2
# B16: des(1)-Ac-[D-Tyr2,Hyp3,Thr5,Phe(2Me)6,Arg(Me)9,Trp10]MS10 (peptide)
# peptide: Ac-[dY][Hyp]NT[Phe(2-Me)]GL[Arg(Me)]W-NH2
# B17: des(1)-Ac-[D-Tyr2,Hyp3,Thr5,Ser7,Arg(Me)9,Trp10]MS10 (peptide)
# peptide: Ac-[dY][Hyp]NTFSL[Arg(Me)]W-NH2
# B18: des(1)-Ac-[D-Tyr2,Hyp3,Thr5,Phe6Ψ((R)CHOH-CH2)Gly7,Arg(Me)9,Trp10]MS10 (peptide)
# peptide: Ac-[dY][Hyp]NTFGL[Arg(Me)]W-NH2
# modifications: also: Phe5-Gly6 -CONH- replaced by (R)-CH(OH)-CH2-
# B19: des(1)-Ac-[D-Tyr2,Hyp3,Thr5,Gly7Ψ(CH2CH2)Leu8,Arg(Me)9,Trp10]MS10 (peptide)
# peptide: Ac-[dY][Hyp]NTFGL[Arg(Me)]W-NH2
# modifications: also: Gly6-Leu7 -CONH- replaced by -CH2CH2-
# B20: des(1)-Ac-[D-Tyr2,Hyp3,Thr5,Arg(Me)9,Trp10]MS10 (peptide)
# peptide: Ac-[dY][Hyp]NTFGL[Arg(Me)]W-NH2
# B21: des(1)-Ac-[D-Tyr2,Glu3,Thr5,Cha6,Gly7Ψ((E)CH═CH)Leu8,Arg(Me)9,Trp10]MS10 (peptide)
# peptide: Ac-[dY]ENT[Cha]GL[Arg(Me)]W-NH2
# modifications: also: Gly6-Leu7 -CONH- replaced by (E) type alkene
# B22: des(1)-Ac-[D-Tyr2,Hyp3,Thr5,Gly7Ψ(CH2NH)Leu8,Arg(Me)9,Trp10]MS10 (peptide)
# peptide: Ac-[dY][Hyp]NTFGL[Arg(Me)]W-NH2
# modifications: also: Gly6-Leu7 -CONH- replaced by -CH2NH-
# B23: des(1)-Ac-[D-Tyr2,Hyp3,Thr5,Phe6Ψ((E)CH═CH)Gly7,Arg(Me)9,Trp10]MS10 (peptide)
# peptide: Ac-[dY][Hyp]NTFGL[Arg(Me)]W-NH2
# modifications: also: Phe5-Gly6 -CONH- replaced by (E) CH=CH
# B24: des(1)-Ac-[D-Tyr2,Glu3,Thr5,Cha6,Arg(Me)9,Trp10]MS10 (peptide)
# peptide: Ac-[dY]ENT[Cha]GL[Arg(Me)]W-NH2
# B25: des(1)-Ac-[D-Tyr2,Hyp3,Thr5,Phe(4Me)6,Arg(Me)9,Trp10]MS10 (peptide)
# peptide: Ac-[dY][Hyp]NT[Phe(4-Me)]GL[Arg(Me)]W-NH2
# B26: des(1)-Ac-[D-Tyr2,Hyp3,Thr5,Ala(cPr)6,Arg(Me)9,Trp10]MS10 (peptide)
# peptide: Ac-[dY][Hyp]NT[Ala(cPr)]GL[Arg(Me)]W-NH2
# B27: des(1)-Ac-[D-Tyr2,Glu3,Thr5,Cha6,Ala(cPr)8,Arg(Me)9,Trp10]MS10 (peptide)
# peptide: Ac-[dY]ENT[Cha]G[Ala(cPr)][Arg(Me)]W-NH2
# B28: des(1)-Ac-[D-Tyr2,Hyp3,Thr5,Phe6Ψ((S)CHOH-(E)CH═)Gly7,Arg(Me)9,Trp10]MS10 (peptide)
# peptide: Ac-[dY][Hyp]NTFGL[Arg(Me)]W-NH2
# modifications: also: Phe5-Gly6 amide bond replaced by -CH(OH)-CH= ((S)-CHOH, (E) alkene)
# B29: des(1)-Ac-[D-Tyr2,Hyp3,Alb4,Thr5,Cha6,Gly7Ψ((E)CH═CH)Leu8,Arg(Me)9,Trp10]MS10 (peptide)
# peptide: Ac-[dY][Hyp][Dap(CONH2)]T[Cha]GL[Arg(Me)]W-NH2
# modifications: also: Gly6-Leu7 -CONH- replaced by (E) type alkene
# B30: des(1)-Ac-[D-Tyr2,Hyp3,Thr5,Phe6Ψ(CH2CH2)Gly7,Arg(Me)9,Trp10]MS10 (peptide)
# peptide: Ac-[dY][Hyp]NTFGL[Arg(Me)]W-NH2
# modifications: also: Phe5-Gly6 amide bond replaced by -CH2CH2-
# B31: des(1)-Ac-[D-Tyr2,Hyp3,Thr5,Phe6Ψ(COCH2)Gly7,Arg(Me)9,Trp10]MS10 (peptide)
# peptide: Ac-[dY][Hyp]NTFGL[Arg(Me)]W-NH2
# modifications: also: Phe5-Gly6 amide bond replaced by -COCH2-
# Molecular target: metastin receptor (OT7T175) stably expressed on CHO/dhfr- cells (human or rat, not given)
# Test: cell-based or functional assay
row,Molecule,"Specific Activity (EC50 of test compound based on EC50 of Metastin (45-54)); agonist activity, intracellular calcium ion level, FLIPR (ratio to Metastin (45-54))"
1,"des(1)-Ac-[D-Tyr2,Hyp3,Thr5,Dap7,Arg(Me)9,Trp10]MS10 (peptide)",1.3
2,"des(1)-Ac-[D-Tyr2,Hyp3,Thr5,Cha6,Ala7,Arg(Me)9,Trp10]MS10 (peptide)",0.5
3,"des(1)-Ac-[D-Tyr2,Pro(4F)3,Thr5,Cha6,Ala(cPr)8,Arg(Me)9,Trp10]MS10 (peptide)",0.4
4,"des(1)-Ac-[D-Tyr2,Hyp3,Thr5,Phe6Ψ(CH2CH2)AzaGly7,Arg(Me)9,Trp10]MS10 (peptide)",0.6
5,B1,1.4
6,B2,0.9
7,B3,0.9
8,B4,0.5
9,B5,1.2
10,B6,3.8
11,B7,1.2
12,B8,0.6
13,B9,0.5
14,B10,0.6
15,B11,0.5
16,B12,1.7
17,B13,0.5
18,B14,0.5

row,Molecule,"Specific Activity (EC50 of test compound based on EC50 of Metastin (45-54)); agonist activity, intracellular calcium ion level, FLIPR (ratio to Metastin (45-54))"
1,B15,0.8
2,B16,0.7
3,B17,0.6
4,B18,0.8
5,B19,0.8
6,B20,1.2
7,B21,0.5
8,B22,2.9
9,B23,0.7
10,B24,0.6
11,B25,0.9
12,B26,1.9
13,B27,0.4
14,B28,1.7
15,B29,0.4
16,B30,1.3
17,B31,1.1

# Source: US7786083B2, “Metastin derivatives and use thereof” (Takeda Pharmaceutical Company Limited, priority 2006, dated 2010)
